According to US20250027068:

Molecular target: pooled human IgG (human IgG1,2,3 and 4)

Protein	Enzyme Activity Endpoint Assay: Fab′2 [ng/µL]	Enzyme Activity Endpoint Assay: Fc [ng/µL]	Enzyme Activity Endpoint Assay: IgG [ng/µL]	Enzyme Activity Endpoint Assay: scIgG [ng/µL]
PRT-677 (protein) MQITSVWTKGVIPPTMDQFRYNNYDVFHAPYLPHQGWYDITKTFDGGDNLLCGAATAGNMLHWWFDQNKEYIENYLKKYPEKQKIIFNNQELFDLRKAINTKDSQTNSELFNYFRDKAFGNLSARQKGVMPDLVLDMFINGYYLNLFKTQSTDVNRPNDTRDKRGGFFDHVFGRGDQTKLLTARHDLYNGGLSDISQLIKQELQSGKALAISHTYGNVSSSHVINLWGADFDAEGNLEAIYVTDSDDRSSIGMKKYYVGINASGKVAISAKKIEGENVGAQVLGLFTLSSGKEIWKKLSLEHHHHHH	0	0	0	0
PRT-476 (protein) MVTSVWTKGVTPPTNFTYGEDVLHAPYVANQGWYDITKAFDGGDDLLCGAATAGNMLHWWFDQNKEQIENYLKKHPEKQKINFNGEQMFDVKEAIDTKDSQTNSELFNYFKEKAFPYLSTKHLGVFPDHVIDMFINGYRLSLTNHGPTPVKRGSKDPRGGIFDAVFTRGDQSKLLTNRHDLKNKTLKEISDLIKQELTEGKALGISHTYANVRINHVINLWGADFDAEGNLEAIYVTDSDSNASIGMKKYFVGVNSNGKVAISAKEIEEDNIGAQVLGLFTLSTGQDIWNQTNLEHHHHHH	0	0	2090	0
PRT-448 (protein) MVTSVWTKGVTPPTDFIKGEDVFHAPYKAGQGWYDITKTFNGKDDLLCGAATAGNMLHWWFDQNKDQIEAYLKEHPEKQKINFNGEQMFDVKEAIDTKDDQTNSKLFEYFKEKAFPYLSTKHLGVFPDHVLDMFINGYRLSLTNHGPTPVKEGSKDPRGGIFDAVFTRGDQSKLLTSRHDLKNKTLKEISDLIKQELTEGKALALSHTYANVRINHVINLWGADFDSNGNLEAIYVTDSDSNASIGMKKYFVGVNSAGKVAISAKEIEDDNIGAQVLGLFTLSTGQDIWNQTNLEHHHHHH	0	0	2150	0
PRT-460 (protein) MVTSVWTKGVTPPTDFIKGEDVFHAPYKAGQGWYDITKTFNGKDDLLCGAATAGNMLHWWFDQNKDQIERYLKEHPEKQKINFNGEQMFDVKEAIDTKDSQTDSKLFEYFKEKAFPYLSTKHLGVFPDHVLDMFINGYRLSLTNHGPTPVKEGSKDPRGGIFDAVFTRGDQSKLLTSRHDLKNKTLKEISDLIKQELTEGKALGLSHTYANVRINHVINLWGADFDSEGNLKAIYVTDSDSNASIGMKKYFVGVNSAGKVAISAKEIKEDNIGAQVLGLFTLSTGQDIWNQTNLEHHHHHH	49	108	26	64
PRT-496 (protein) MVTSVWTKGVTPPTDFIKGEDVFHAPYKAGQGWYDITKTFNGKDDLLCGAATAGNMLHWWFDQNKEYIEAYLKKHPEKQKIMFGDQELLDVRKAINTKGSQKNSELFNYFRDKAFPNLSARRLGVMPDLVLDMFINGYYLNVTKTQTTDVNRTYQEKDKRGGIFDAVFTRGDQSKLLTSRHDLKNKGLKEISDLIKQELTEGKALGLSHTYANVRINHVINLWGADFDSDGNLKAIYVTDSDSNASIGMKKYFVGVNSAGKVAISAKEIKEDNIGAQVLGLFTLSTGQDIWNQTNLEHHHHHH	190	192	0	0
PRT-670 (protein) MQITSVWTKGVTPLTPEQFRNNNEDVFHAPYLPNQGWYDITKAFNGKDNLLCGAATAGNMLHWWFDQNKEEIEAYLKKYPEKQKIIFNNQELFDLRKAINTKDSQTNSALFNYFRDKAFPNLSARQLGVMPDHVLDMFINGYYLNVGKTQSTDVNRPYQDKDKRGGIFDHVFNRGDQTKLLTARHDLKNKTLNDISTLIKQELSSGKALALSHTYANVGISHVINLWGADFNAEGNLEAIYVTDSDDRASIGMKKYYVGRNASGHVAISAKKIEGENLGAQVLGLFTLSSGKEIWQKLSLEHHHHHH	0	174	594	798
PRT-454 (protein) MITSVWTKGVTPPTDFIKGEDVFHAPYKAGQGWYDITKAFDGGDDLLCGAATAGNMLHWWFDQNKDQIEAYLKEHPEKQKINFNGEQMFDVKEAIDTKDDQTNSELFNYFKEKAFPYLSTKHLGVFPDHVLDMFINGYRLSLTNHGPTPVKRQEKDPRGGIFDAVFGRGDQTKLLTSRHDFKEKTLNEISQLIKQELTEGKALALSHTYANVRINHVINLWGADFDAEGNLEAIYVTDSDSNASIGMKKYFVGVNSAGKVAISAKEIEDDNIGAQVLGLFTLSTGQKIWNKTNLEHHHHHH	217	317	94	653
PRT-466 (protein) MITSVWTKGVTPPTDFIKGEDVFHAPYKAGQGWYDITKAFDGGDDLLCGAATAGNMLHWWFDQNKDQIERYLKEHPEKQKINFNGEQMFDVKEAIDTKDSQTNSELFNYFKEKAFPYLSTKHLGVFPDHVLDMFINGYRLSLTNHGPTPVKRQEKDPRGGIFDAVFGRGDQTKLLTSRHDFKEKTLNEISQLIKQELTEGKALGLSHTYANVRINHVINLWGADFDAEGNLEAIYVTDSDSNASIGMKKYFVGVNSAGKVAISAKEIKEDNIGAQVLGLFTLSTGQKIWNKTNLEHHHHHH	404	362	161	303
PRT-455 (protein) MITSVWTKGVTPPTDFIKGEDVFHAPYKAGQGWYDITKAFDGGDDLLCGAATAGNMLHWWFDQNKDQIEAYLKEHPEKQKINFNGEQMFDVKEAIDTKDDQTNSELFNYFKEKAFPYLSTKHLGVFPDHVLDMFINGYRLSLTNHGPTPVKRQEKDPRGGIFDAVFGRGDQTKLLTSRHDLKNKTLNEISQLIKQELTEGKALALSHTYANVRINHVINLWGADFDAEGNLEAIYVTDSDSNASIGMKKYFVGVNSAGKVAISAKEIEDDNIGAQVLGLFTLSTGQKIWNKTNLEHHHHHH	872	416	0	333
PRT-513 (protein) MITSVWTKGVTPPAKFTQGEDVFHAPYVANQGWYDITKTFNGKDDLLCGAATAGNMLHWWFDQNKEEIEAYLKKHPEKQKIMFGDQELLDVRKVINTKDSQTNSALFNYFKDKAFPNLSARRLGVMPDLVLDMFINGYYLNVYKTQTTDVNRTYQTKDRRGGIFDAVFTRGDQSKLLTERHDLKNKTLKEISDLIKQELTEGKALGLSHTYANVRINHVINLWGADFDSNGNLEAIYVTDSDSNASIGMKKYFVGVNSAGKVAISAKEIKEDNIGAQVLGLFTLSTGQDIWNQTNLEHHHHHH	397	367	374	0
PRT-508 (protein) MITSVWTKGVTPPTDFIKGEDVFHAPYKAGQGWYDITKTFNGKDDLLCGAATAGNMLHWWFDQNKEEIEAYLKKHPEKQKIMFGDQELLDVRKVINTKDSQTNSALFNYFKDKAFPNLSARRLGVMPDLVLDMFINGYYLNVYKTQTTDVNRTYQTKDRRGGIFDAVFTRGDQSKLLTERHDLKNKTLKEISDLIKQELTEGKALGLSHTYANVRINHVINLWGADFDSNGNLEAIYVTDSDSNASIGMKKYFVGVNSAGKVAISAKEIKEDNIGAQVLGLFTLSTGQDIWNQTNLEHHHHHH	0	0	0	0
PRT-478 (protein) MITSVWTKGVTPPTDFIYGEDVLHAPYKAGQGWYDITKAFDGGDDLLCGAATAGNMLHWWFDQNKEQIENYLKKHPEKQKINFNGEQMFDVKEAIDTKDSQTNSELFNYFKEKAFPYLSTKHLGVFPDHVIDMFINGYRLSLTNHGPTPVKRQEKDPRGGIFDAVFGRGDQTKLLTNRHDFKEKTLNEISQLIKQELTEGKALGISHTYANVRINHVINLWGADFDAEGNLEAIYVTDSDSNASIGMKKYFVGVNSNGKVAISAKEIEEDNIGAQVLGLFTLSTGQKIWNKTNLEHHHHHH	509	453	216	362
PRT-682 (protein) MQITSVWTKGVTPLTPEQFRNNNEDVIHAPYLANQGWYDITKTFNGKDNLLCGAATAGNMLHWWFDQNKTEIEAYLKKHPEKQKIIFNNQELFDLKKAIDTKDSQTNSQLFNYFRDKAFPNLSARQLGVMPDLVLDMFINGYYLNVFKTQSTDVNRPYQDKDKRGGIFDAVFTRGDQTTLLTSRHDLKNKGLNEISDIIKQELTEGKALALSHTYANVSISHVINLWGADFNAEGNLEAIYVTDSDANASIGMKKYFVGVNAHGKVAISAKKIEGENIGAQVLGLFTLSSGKDIWQKLSLEHHHHHH	0	0	0	0
PRT-503 (protein) MITSVWTKGVTPPTDFIKGEDVFHAPYKAGQGWYDITKAFDGGDDLLCGAATAGNMLHWWFDQNKEYIEAYLKKHPEKQKIMFGDQELLDVRKAINTKGSQKNSELFNYFRDKAFPNLSARRLGVMPDLVLDMFINGYYLNVTKTQTTDVNRQEQEKDKRGGIFDAVFGRGDQTKLLTSRHDLKNKGLNEISQLIKQELTEGKALGLSHTYANVRINHVINLWGADFDADGNLEAIYVTDSDSNASIGMKKYFVGVNSAGKVAISAKEIKEDNIGAQVLGLFTLSTGQKIWNKTNLEHHHHHH	0	0	0	0
